Source: doi:10.1101/2023.08.04.552031, “Oligomerization and positive feedback on membrane recruitment encode dynamically stable PAR-3 asymmetries in the C. elegans zygote” (bioRxiv, 2023)

B1: PAR-3::GFP, endogenously tagged (C-terminal fusion of GFP to PAR-3 from the endogenous locus) (natural protein, C. elegans, UniProt Q17353 1-1379, looked up)
chain: MSASSTSSSSTSCPEGGEPSGSCKSSDEGESTLKKRMQQYGIASGYANSSISTLDRSQYQSLPLNGTRRVTVQFGRMKIVVPWKESDQTVGQLADAALLRYKKARGMANEDRIHVHRLECASDGGILDMDDVLEEVFDLNYDQILAITDEANGGSTTPTYSQIQKQQHHYAQPLPYARKFDGGPSTPIASAFGSVTVNHQAHRAASPYNVGFARSNSRDFAPQPTHSKERRDSVVEVSSFDQIPQSGLRVSTPKPSRQSEDVIDGKPMNQPILRSSLRTEASGSRTEEATPVKQSRVTLSPEVEKKLAEQDERKSERRKHYDKNPGRFARGSDRKSRITDALLDARDRIADQLESQNPAEETKSQMIRVKIDQGPMPGTSLVTFPPIPEKSENEKQLGIEVNAVFDESSELPGTSEPTKLSSVQIMKIEDGGRIAKDGRIRVGDCIVAIDGKPVDQMSIIRVRASISDLAAVTSRPVTLIINRSLESFLEQESSAKPIQSALQQANTQYIGHTTVVELIKSSNGFGFTVTGRETAKGERLFYIGTVKPYGVALGHLKSGDRLLEINGTPTGQWTQSEIVEKLKETMVGEKIKFLVSRVSQSAIMSTSASSENKENEETLKVVEEEKIPQKLPLPALMTPPVPKDTPALSPSGASRFEIVIPFINGSSSAGLGVSLKARVSKKSNGSKVDCGIFIKNVMHGGAAFKEGGLRVDDRIVGVEDIDLEPLDNREAQAALAKKLKEVGMISSNVRLTISRYNECNPGQISRDLSRITVDASSPSPSSRMSSHTAPDSLLPSPATRGTSSSGADSSHSRQSSASSAVPAVPARLTERDSIVSDGTSRNDESELPDSADPFNREGLGRKSLSEKRGMGAAADPQHIKLFQDIKHQRQNSAPTSSTQKRSKSQPRSSSQRNYRSPMKLVDLPTTAAASASTNSQNLDDSDMLNRRSQSMESINRPVESILRGTGQIPTGSSSKVQFMQAASPDQHPFPPGAALLRLKNEESRSRDKSRRKSMGNPFSAMRNFFGFGSKSRDASPEKTPTESVQLRSVERPKSIIDERNNGSSERAPPPLPPHQSQRRGSGGNVFVDYGEPYGLIPQYPHNTTSGYESYADSELYDRYAAHRYHPRGGPIIDEDEYIYRQQSTSGNSPINTSSYVNYGLPASNAYHVGSRIPPQTSSGSISKTSGAMRRVYPAEYDEDVAYHQQIPQQSTRYQQGSGSGRGNADYHHMFNSWFAYTGGGAVGAAPVIKSSYGSSPVRIAAASAIERGESFVVEPVSGSSASATDRRGRSTSSGAVASGSSSTGFQYAAKEKYADARSGKFNGGSTRLFIPRHGGGLSAAAFATNFGGEAYETRGGGAGGSPSQYRRRDQGPPHRFPQY
notes: PAR-3, C. elegans, oligomeric scaffold protein; expressed from the endogenous locus; Oligomers of variable size (exponential size distribution) at the cell membrane; also called endogenously-tagged PAR-3::GFP; par-1; source: expressed from the endogenous locus in C. elegans, observed in living one-cell embryos; not shown: GFP, C-terminal, kept
B2: PAR-3::GFP, transgenic (natural protein, C. elegans, UniProt Q17353 1-1379, looked up)
chain: B1 chain
notes: PAR-3, C. elegans; transgenically expressed; The oligomers from which single labelled molecules depolymerise probably also hold unlabelled PAR-3 of the embryo; also called transgenic PAR-3::GFP; full length PAR-3::GFP

Key:
[1] = target: the molecule itself; assay: particle intensities calibrated to single GFP molecules (near-TIRF imaging of living embryos); posterior membrane, where PAR-3 density is lower; homozygous par-1 mutant embryos, late maintenance phase; streaming mode, 100% laser power, 50 msec exposure; features binned by intensity against the mean single molecule intensity after photobleaching; size distribution fitted to An = A1 α^n−1
[2] = target: the molecule itself; assay: particle intensities calibrated to single GFP molecules (near-TIRF imaging of living embryos); anterior membrane, where PAR-3 density is higher; homozygous par-1 mutant embryos, late maintenance phase; streaming mode, 100% laser power, 50 msec exposure; features binned by intensity against the mean single molecule intensity after photobleaching; size distribution fitted to An = A1 α^n−1
[3] = target: the molecule itself; assay: single molecule tracking and release curves (near-TIRF imaging of living embryos); single PAR-3::GFP molecules, 100% laser power, 50 msec exposures, duty ratio of exposure varied; release curves fitted to exponentials from tmin = 1 sec; linear fit kops = kdep + dr * kpb, the intercept is kdep (depolymerization of a subunit from membrane-bound oligomers); also in par-6(RNAi) and cdc-42(RNAi) embryos, no significant …

Protein | stoichiometry N [1] | stoichiometry N [2] | koff [3] [s⁻¹]
B1 | 1.65 ± 0.16 subunits (mean oligomer size) | 3.48 ± 0.65 subunits (mean oligomer size) | –
B2 | – | – | 0.08
